Test: soluble on expression in E. coli; label from the status in PepcDB or PDB records

Row | Sequence | soluble on expression in E. coli
1 | MSFYSAHQLALALEGLQRALDEIGIYSDILEDALLIACNVPVAEKTSILNDFQRADTINYGGLAAAIRANLAPDVCERRITEFQKKYAHGTDDQRLELLSDESVWRLEAYEAFADAEPLSTLEKIRLGVIGGPIDSIDPNWPLRKIAPERFLNDRWSRAVHDPRRIRRKIIGHRLPYRTKAEPDVPYGIPKRARLAARENSGPVRAPPLLGGAHPGQFRARGPAGVGVVSRHTRQFGAARGVLRGPTGNRVVPLFPVQIRARPPAPSQTIIRVQETERVKLEPTDNSYEEQKPPLLEN | not soluble
2 | MSLIERVRTDLYRIPLPTRLTDSTHGAMMDFELITVRIEDSDGATGLGYTYTVNHGGAAVATMVDKDLRGCLLGADAEQIEKIWQSMWWRLHYAGRGGHATSAISAVDIALWDLKGIRARTPLWKLFGGYDPVVPVYAGGIDLELPVADLKTQADRFLAGGFRAIKMKVGRPDLKEDVDRVSALREHLGDSFPLMVDANMKWTVDGAIRAARALAPFDLHWIEEPTIPDDLVGNARIVRESGHTIAGGENLHTLYDFHNAVRAGSLTLPEPDVSNIGGYTTFRKVAALAEANNMLLTSHGVHDLTVHALASVPHRTYMEAHGFGLHAYMAEPMAVTDGCVSAPDRPGHGVVLDFERLGRLAVGEGHHHHHH | soluble
3 | GPGSMEERKTASGSAYYLPSPLLLSQNQGEERVKFVVVSGGVCSSLGKGVTTSAIGALLHASGYRVCSIKIDPYINIDAGLMSPYEHGEVYVLEDGGEADLDLGNYERWMSVHLTRDHNITTGKMYQKLLTKERAGGFLGKTVQLVPHFTNEVVNHIFKIC | not soluble
4 | MRTMVFPGSAPAYPIRYPSTMQETDSGAGPRTLRRGLMVLAALRDQGPRGLSVTDIARQTGIQRPTIYRLLAALLDAGLVVPLQGTKKYRTQLAADADLAAPDPRVRQMLPVLRRLADRTGDAVFLVVRDGDDSVSLHREIGSYPVQILATYAGKRQPLGVGSGGMALLAALPDEIAHAIVQRNSGRLDEYGGMTPQEMHRLIENTRARGYSVVGNHAVRGALGVGCALLDAQGAPVLAVSVTAIIDRMPAQRQREIAGWIGAELARLAPKA | not soluble
5 | MLLPTPEDLKKRRNELGLTQSDLAKRAGVSQPLIARIESGDVDPRLSTVRKILDAFEEAEKERQILIRDLMHSPVLHVSPEDSVEEVVNLMHVHGFSQIPVLDRGIPVGSVSEDMIVRLMGESKKKPISQLKVSGIMGESFPTVSPGISISVVSHILEGNPAVLVVEKGTVVGVVTKHDVMKLLQGQ | not soluble
6 | MEYSDIRDRILLATLPNVPFDGWSGKALRLGAESAGFDREAADRAFPGGPAEAVGHFIDLANRMMEADLGARDLSGLKLPEKIHLAIKLRLERWAGDREAVRRGLALLSLPGHARLSLKSTYATVDGIWHAVGDRSVDFSFYTKRAELAAIYGATLLVWLEDTSEESAETWAFLDRRLEGVIRLRKARAKLRERMTHLPTLPRLLNPLDLVRKPFGLMRSMRMRLEHHHHHH | soluble
7 | MRSALSLKPSNGNAAKSQAVNNKNVIKNAPLGGKLTRQIGTSNLLQQALPSKKIDESPIIKIDAKDSFKVFEDQEPEKENSSENVDATEKDSNVIPAEDNNMIHELERKMEEKSRAEKLKFKFMQTRDNSDITSRFSEPPSEFSVLCDDDDCDKVSVASSTFTTSVRATFSSFHFDENQRKKEFGKEEAVKKIQKKAAKEARDDSMFSSEEFFPDIIKYMLHRQTKNRASHECFDIQSQVNEEMRTILIDWFSDVVKEYNFQKETFHLAVSLVDRALSMFNIDKMRFQLVGTTSMMIAVKYEEIFPPEIEDFALITDNTYRVPDILLMERFLLGKFDFVVAMPTSSWFGTCFAKRMNFTKKMRNTVHYLLELSLIDVHFLRYRPSDIAAAACCFANLQADVESWPQKMVDDTGISTEDFVDVLRDLHRMYLNASTADFKSIFYNYSETAQMEVALLPAPTDKLRSMFPSIFVTAPKSSNDSSSPQ | not soluble
8 | MGSDKIHHHHHHMGILSDKDIAYLKDLFGKELKRKVKIVFFKTEDKTRCQYCEITEQVLEELVSVDPKLELEIHDFDSDKEAVEKYQVEMVPATILLPEDGKDYGIRFYGVPSGHEFGTLIQDIITVSEGKPQLSEESIQKLQSLEEPIRISVFVTPTCPYCPRAVLMAHNMAMASDKIIGEMIEANEYWELSEKFGVSSVPHIVVNRDPSKFFVGAYPEKEFINEVLRLAKG | not soluble
9 | MAKRGRKRKVSKDEENTTPEPEMKKKADEKVVELDEKDWMPSAALEFFENENFKEIVENLSHLDNSVTLVGPFRKLRGESDADGTDLIMLDREMTDLPEMQTFMKCSHGRYAFWRDKPNDKKPVIVFMDLKTIPDLSVVGNEIRHAILDFCTRCSKCIDCSAKSKAANSKIQSFFTPSKISSEVKEVLKHREKTTVRGISGPGMLIDVVPTGNSGKKNKKNERTGYRDLSKNAYCINIEHLVRSLRLCQTKEQEEKVLDFVYGLMNEINICNDEGDFGNGLELGHILFLANMKAVADPMMITLHIAYKNLHRPDFAKILDLTLSLRDQQEEAT | soluble
10 | PGSIWAKAIEHANEERKKPGADGRGDAFCYFVGSRAAGKSTLLNRFLYPTRAEVPKPSEGIEYTYARKPAAFDHEKKDLAHIWEVGGSQEFAEEIVNSDQLFLTAKQVTTAVVVIVVDLSDPAGVLPTLLYWVEQVKKKLGSTYEKFEKKGLQLPEQLRQRAKSKLYSANEDKDTVYHSGISLVIAATKYDAFKNQDPEVKKVMSRVLRYIAHAHGAFLCYLSGLHGASEGSGAEDAALLDNFTRLMNHLIFTGLEKKPVLKMQPQIDHTGPIMVPAGFDTFKSVGRPRSQGEGTVAGGLAEWRELFEKMFPGVREKEAKMSAKGAKFVIPEQYKEEEVDAVRQRKVTDLENFRKEQAAAVEAAKKKALMAKAQQAEAAAKK | not soluble
11 | MFGYPGGAVLDIYDALHTVGGIDHVLVRHEQAAVHMADGLARATGDVGVVLVTSGPGATNAITGIATAYMDSIPLVILSGQVATSLIGYDAFQECDMVGISRPVVKHSFLVKQTEDIPLVLKKAFWLAASGRPGPVVVDLPKDILNPAKKMPYAWPETVSMRSYNPTTSGHKGQIKRALQTLASAKKPVVYVGGGAISAACYAPLRHIIETFNLPVVSSLMGLGAFPATHRQSLGMLGMHGTYEANMTMHNADVIFAVGVRFDDRTTNNLAKYCPNATVLHIDIDPTSISKTVNADIPVVGDARLVLEQMLELLAQDAPSQPQDDIRDWWQQIESWRARQCLKYDAESESIKPQAVIETLWRLTKGDAYVTSDVGQHQMFAALYYPFDKPRRWINSGGLGTMGFGLPAALGVKMALPKEMVVCVTGDGSIQMNIQELSTALQYELPVLVLNLNNRYLGMVKQWQDMIYSGRHSQSYMQSLPDFVRLAEAYGHVGLQINRPDELESKLSEALEHVRNNRLVFVDVTVDGSEHVYPMQIRGGGMDEMWLSKTERT | not soluble
12 | MSLRANCLVQTTEWSACSKTCGMGISTRVTNDNASCRLEKQSRLCMVRPCEADLEENIKKGKKCIRTPKISKPIKFELSGCTSMKTYRAKFCGVCTDGRCCTPHRTTTLPVEFKCPDGEVMKKNMMFIKTCACHYNCPGDNDIFESLYYRKMYGDMAEGHHHHHH | not soluble
13 | KVWDRAVDFLAANESRVRTETRRIGGADFLVWRWIQPSASCDKILVIPSKVWQGQAFHLDRRNSPPNSLTPCLKIRNMFDPVMEIGDQWHLAIQEAILEKCSDNDGIVHIAVDKNSREGCVYVKCLSPEYAGKAFKALHGSWFDGKLVTVKYLRLDRYHHRFPQALTSNTPLKPSNKHMNSMSHLRLRTGLTNSQGSS | soluble
14 | MGSDKIHHHHHHMDANSLKAFLTIVDQGSFSEAAETLHLTQPAISKRLAALETQLGTRLIDRSNREIRLTEAGTRLLPHARKILDEIHNARMALTTSADSIGGELHAIASHHIGLHHLPNWLRRYRREYPQVDLHLQFMESDAAYDQMNKRNAELAFVTLSDSMNPEFSILAQWPDPMAFVVGKEHPLATLASPSLSDLAPHPALLPDTSTATYRVVSRLFLEANLTLRPLMPTNYLETIKMMVSVGLGWSILPVSMLDNSLKVLEVPHPVTRVLGAVALSRRQLGSAAQALLQIVEQEETRPESGQ | not soluble
15 | MKREDLLRHLAETEVWDMIVIGGGATGLGTAVEAAGRGYRTLLLEQGDFAQGTSSRSTKLIHGGVRYLQQGNLTLVLEALRERGLLIRNAPHLVHNLSFVVPLYDWWEGPFYGIGLKLYDVLAGKLGLGPSRLLSREETLGHIPTVEPHGLRGGVIYHDGQFDDSRLAISLALTLADLGGVALNHFPVTGIISRDGLVAGVEARDRETGGAFRIMGRAVINAAGPFVDGVRRLADPAARDLIAPSQGVHLVLDGSFLPGDSAIMVPHTDDGRVLFAVPWHGRTVVGTTDTPIPAAGLEPRPLPEEIDFLLSHAARYLTRHPERRDVLSTFAGIRPLVRSDSGGDTASLSRDHTLLVEGSGLVTIAGGKWTTYRKMGEDTVTAAAQVAGLDHRPSVTETLRIHGWQEDATEGPLQVYGSDAAALEQLLRENAAWREPLHPALPYCAGEVVWGVRHEWARTVEDVLARRTRALLLDARAAVAAAPRVAELMARELGRDSDWQAAQVAAFTHLARGYLPELEHHHHHH | not soluble
16 | MGSDKIHHHHHHMVRGRKIMSLVTDLPAIFDQFSEARQTGFLTVMDLKERGIPLVGTYCTFMPQEIPMAAGAVVVSLCSTSDETIEEAEKDLPRNLCPLIKSSYGFGKTDKCPYFYFSDLVVGETTCDGKKKMYEYMAEFKPVHVMQLPNSVKDDASRALWKAEMLRLQKTVEERFGHEISEDALRDAIALKNRERRALANFYHLGQLNPPALSGSDILKVVYGATFRFDKEALINELDAMTARVRQQWEEGQRLDPRPRILITGCPIGGAAEKVVRAIEENGGWVVGYENCTGAKATEQCVAETGDVYDALADKYLAIGCSCVSPNDQRLKMLSQMVEEYQVDGVVDVILQACHTYAVESLAIKRHVRQQHNIPYIAIETDYSTSDVGQLSTRVAAFIEML | not soluble
17 | MPRISKRQLILESAAAIINEKGADYLTLDAVAQRAGISKGGLFYHFKSKDELIKELVNYANNLYRDNVNQHIGNEKNKKGQWLNAFIEATRAHRTDNAPITSGMLAAQGTNRSLLSPLKTSYQEWQYQITHDGLDEVDATIIRLAVDGLWLSEIFGISAIDEEMREKVIERLKMQIEKN | not soluble
18 | MCLICDRIKMIKINQNKFFVKELKTGYVVLGDNQHFKGYTLFLYKEHENELYQLEPNEKLNFLEEMSLVGEAVSKAFECEKMNYELLGNGDSHLHWHLFPRISGDLGEYGYYGKGPVWWYPREKMYSTDNEPTDEELEKLKQRLNVELDRLFYEKLEHHHHHH | not soluble
19 | MGSDKIHHHHHHMPEFMKPIHSVILIQNLQARIETCAEMAVNVFQNLNTASLLCPSNTGGWSIVQCLDHLNSYGDYYLPHIQKAFDTHMPGKPAEDVKSSWLGNYFTQLMLPDSGKKYKAFKKHIPKPRLDSAAVVATFIEQQEILLTYLEKAKKYDMNTIRISISIAPFIKLKLGDVFQFLVAHTERHVQQAQRNVPIYE | not soluble
20 | RALCDEDMKKVFTRLPSSSAIPLAVRRAQDMFVLMFLLRGLPFVDLAYLRKSDLRDNVITYRRRKTGRPLSVTLTPEALELLKKYMNRDSHSPYLFSLLKSGEGTKEAYREYQLALRSFNQQLTLLGEVLGLNDKLSSYTARHTWATTAYYCEIHPGIISEAMGHSSIKVTETYLKPFRNKKIDEANNQIIDFVKHSIAGVVS | not soluble

— the DeepSol protein solubility set
